The experiment concerns the target MS2-Biotin, biotinylated single-chain MS2 coat protein dimer with an AviTag in a surface loop of the second monomer (bacteriophage MS2). The experiment is described as follows: SEC. A general note: Size exclusion chromatography separates by hydrodynamic size, large species first.

“streptavidin (from UniProt P22629 25-183) (natural protein)” had a stoichiometry N (streptavidin molecules per VLP) of 72.

The values are drawn from paper PMC8134492.
